Experimental data as given in paper PMC8093215 (Nature Communications, 2021).
Like-named read-outs stand apart in the source and are kept apart here. No end group written: not given here. trimethyl = trimethyl-lysine; dimethyl = dimethyl-lysine

T1: bovine DNMT1 BAH1 domain (residues 725–897, residues 838–858 replaced by GAGSA) (bovine, UniProt Q24K09 725-837; Q24K09 859-897)
T1 construct: bovine DNMT1 BAH1 domain, residues 725-837; linker that replaces residues 838-858 to facilitate crystallization; bovine DNMT1 BAH1 domain, residues 859-897; the last two beta-strands were domain-swapped during crystallization; also called bDNMT1_(BAH1); source: E. coli BL21(DE3) RIL, purified (Ni, ULP1 cleavage, Q XL, Ni, SEC); not shown: His6-SUMO, N-terminal, cleaved
T1 chain: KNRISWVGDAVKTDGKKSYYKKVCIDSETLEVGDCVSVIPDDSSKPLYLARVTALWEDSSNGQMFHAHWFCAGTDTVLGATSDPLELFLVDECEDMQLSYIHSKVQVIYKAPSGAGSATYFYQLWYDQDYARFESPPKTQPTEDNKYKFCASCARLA

T2: human ORC1 BAH domain (residues 1-185) (human, UniProt Q13415 1-185)
T2 construct: human origin recognition complex subunit 1 (ORC1), BAH domain, residues 1-185
T2 sequence (looked up): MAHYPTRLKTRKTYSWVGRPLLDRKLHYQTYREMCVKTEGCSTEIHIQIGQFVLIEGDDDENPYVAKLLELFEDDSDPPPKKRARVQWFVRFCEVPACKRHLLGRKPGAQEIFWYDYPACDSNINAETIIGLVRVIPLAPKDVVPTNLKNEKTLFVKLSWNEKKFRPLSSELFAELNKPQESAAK

B1: hDNMT1(714-727) autoinhibitory linker peptide (peptide)
peptide: SPKKMHQGKKKKQNY
notes: numbering on isoform 1 of 1616 amino acids; additional C-terminal tyrosine for spectroscopic quantification; source: synthetic peptide (LifeTein)
B2: H4(14–25)K20me2 peptide (peptide)
peptide: GAKRHRK(dimethyl)VLRDNY
notes: histone H4, residues 14-25; additional C-terminal tyrosine for spectroscopic quantification; also called H4K20me2 peptide; source: synthetic peptide (LifeTein)
B3: H4(14-25)K20me3 peptide (peptide)
peptide: GAKRHRKVLRDNY
modifications: trimethyl-lysine at K20
notes: histone H4, residues 14-25; additional C-terminal tyrosine for spectroscopic quantification; also called H4K20me3 peptide; source: synthetic peptide (LifeTein)
B4: H4(14–25)K20me3 peptide (peptide)
peptide: GAKRHRK(trimethyl)VLRDNY
notes: as for B3
B5: H4(14-25)K20me2 peptide (peptide)
peptide: GAKRHRK(dimethyl)VLRDNY
notes: histone H4, residues 14-25; additional C-terminal tyrosine for spectroscopic quantification; source: synthetic peptide (LifeTein)
B6: autoinhibitory linker peptide hDNMT1(714–727) (peptide)
peptide: SPKKMHQGKKKKQNY
notes: numbering on isoform 1 of DNMT1 with 1616 amino acids; additional C-terminal tyrosine for spectroscopic quantification; source: synthetic peptide (LifeTein)

Legend:
[1] = molecular target: T3, human DNMT1 BAH1 domain, wild type, His6-MBP construct used for the autoinhibitory linker binding (human, UniProt P26358 728-900); test: ITC; hDNMT1 BAH1 domain (WT, W796A or Mut^YW) with the autoinhibitory linker peptide hDNMT1(714-727); 5 °C; single-site binding mode; details: both partners purified
T3 construct: numbering on isoform 1 of 1616 amino acids; also called hDNMT1_(BAH1), WT; source: E. coli BL21(DE3) RIL, purified (Ni, ion exchange, TEV cleavage, Ni, SEC)

[2] = molecular target: T1, bovine DNMT1 BAH1 domain (residues …); test: crystal structure; bDNMT1 BAH1 mixed with peptide 1:3; hanging drop, 13% PEG1500, 20 mM DTT, 200 mM L-proline, 4 °C; HEPES pH 7.5 (K20me3) or MES pH 6.5 (K20me2); details: both partners purified
[3] = molecular target: T4, MBP-tagged human DNMT1 residues 351-1600, M718A/H719A/K723A/K724A/K725A/Q726A (Mut^linker) (human, UniProt P26358 351-1600, M718A | H719A | K723A | K724A | K725A | Q726A); test: ITC
T4 construct: numbering on isoform 1 of 1616 amino acids; also called MBP-Mut^linker; source: E. coli BL21(DE3) RIL, purified

[4] = molecular target: T4, MBP-tagged human DNMT1 residues …; test: ITC; remark: listed apart in the source
[5] = molecular target: T5, human DNMT1 BAH1 domain (residues 728-900), E819A (human, UniProt P26358 728-900, E819A); test: ITC; 1 mM H4K20me peptide titrated over 0.1 mM hDNMT1 BAH1 or BAH2 domain; 25 mM Tris-HCl pH 7.5, 100 mM NaCl, 2 mM DTT; 5 °C; single-site binding mode; details: both partners purified
T5 construct: numbering on isoform 1 of 1616 amino acids; also called hDNMT1_(BAH1), E819A; source: E. coli BL21(DE3) RIL, purified as the wild-type protein; not shown: His6-SUMO, N-terminal, cleaved

[6] = molecular target: T6, human DNMT1 BAH1 domain (residues 728-900), E821A (human, UniProt P26358 728-900, E821A); test: as above; details: both partners purified
T6 construct: numbering on isoform 1 of 1616 amino acids; also called hDNMT1_(BAH1), E821A; source: E. coli BL21(DE3) RIL, purified as the wild-type protein; not shown: His6-SUMO, N-terminal, cleaved

[7] = molecular target: T7, human DNMT1 BAH1 domain (residues 728-900), D768A (human, UniProt P26358 728-900, D768A); test: as above; details: both partners purified
T7 construct: numbering on isoform 1 of 1616 amino acids; also called hDNMT1_(BAH1), D768A; source: E. coli BL21(DE3) RIL, purified as the wild-type protein; not shown: His6-SUMO, N-terminal, cleaved

[8] = molecular target: T2, human ORC1 BAH domain (residues 1-185); test: ITC; 0.45 mM H4K20me2 peptide titrated over 64 µM ORC1 BAH domain; 20 mM Tris-HCl pH 7.5, 100 mM NaCl, 1 mM DTT; 5 °C; single-site binding mode; details: both partners purified
[9] = molecular target: T8, hDNMT1 BAH1 domain from the His6-MBP vector (human, UniProt P26358 728-900); test: ITC; hDNMT1 BAH1 (WT, W796A or Mut^YW) with the autoinhibitory linker peptide hDNMT1(714-727); 5 °C; single-site fit; details: both partners purified
T8 construct: numbering on isoform 1 of DNMT1 with 1616 amino acids; also called WT; source: E. coli BL21(DE3) RIL, purified (Ni, ion exchange, TEV cleavage, Ni, SEC); not shown: His6-MBP, N-terminal, cleaved
T8 sequence (P26358 728-900): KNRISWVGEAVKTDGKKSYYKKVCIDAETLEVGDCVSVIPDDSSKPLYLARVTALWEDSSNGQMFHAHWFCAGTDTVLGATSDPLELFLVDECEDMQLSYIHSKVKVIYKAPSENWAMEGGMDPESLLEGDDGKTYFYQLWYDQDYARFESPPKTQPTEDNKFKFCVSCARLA

T4 sequence (P26358 351-1600 M718A/H719A/K723A/K724A/K725A/Q726A): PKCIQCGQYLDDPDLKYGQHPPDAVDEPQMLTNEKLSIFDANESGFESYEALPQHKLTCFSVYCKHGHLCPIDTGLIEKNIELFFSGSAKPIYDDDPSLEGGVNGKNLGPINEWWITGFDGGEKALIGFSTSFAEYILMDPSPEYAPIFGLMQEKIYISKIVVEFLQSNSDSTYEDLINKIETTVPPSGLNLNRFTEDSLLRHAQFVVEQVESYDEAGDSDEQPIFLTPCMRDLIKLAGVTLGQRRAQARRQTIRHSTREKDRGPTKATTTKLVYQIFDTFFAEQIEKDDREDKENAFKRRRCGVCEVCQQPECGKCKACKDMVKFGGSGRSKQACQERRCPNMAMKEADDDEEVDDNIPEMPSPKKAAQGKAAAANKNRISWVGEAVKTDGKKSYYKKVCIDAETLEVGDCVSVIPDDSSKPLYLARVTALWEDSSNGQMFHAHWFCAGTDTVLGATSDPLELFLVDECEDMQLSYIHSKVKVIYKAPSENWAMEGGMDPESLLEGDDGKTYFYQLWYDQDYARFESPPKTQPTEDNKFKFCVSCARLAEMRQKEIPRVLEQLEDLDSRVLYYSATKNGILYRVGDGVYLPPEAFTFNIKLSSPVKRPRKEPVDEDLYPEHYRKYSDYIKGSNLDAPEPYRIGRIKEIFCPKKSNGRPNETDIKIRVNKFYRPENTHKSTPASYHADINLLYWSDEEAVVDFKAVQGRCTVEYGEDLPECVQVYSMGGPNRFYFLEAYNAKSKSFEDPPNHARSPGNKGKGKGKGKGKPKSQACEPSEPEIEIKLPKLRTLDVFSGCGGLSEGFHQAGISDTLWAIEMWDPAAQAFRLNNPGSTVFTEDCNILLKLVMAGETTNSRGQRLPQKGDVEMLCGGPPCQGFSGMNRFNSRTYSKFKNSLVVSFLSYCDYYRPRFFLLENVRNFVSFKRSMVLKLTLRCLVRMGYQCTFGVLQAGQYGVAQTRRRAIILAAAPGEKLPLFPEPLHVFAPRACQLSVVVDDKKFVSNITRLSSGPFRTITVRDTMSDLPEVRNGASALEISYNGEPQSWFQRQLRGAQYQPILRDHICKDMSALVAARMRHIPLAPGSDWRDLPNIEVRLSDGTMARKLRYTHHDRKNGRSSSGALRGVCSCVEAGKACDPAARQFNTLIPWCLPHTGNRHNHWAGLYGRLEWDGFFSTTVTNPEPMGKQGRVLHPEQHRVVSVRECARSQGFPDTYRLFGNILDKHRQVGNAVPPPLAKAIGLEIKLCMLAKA
T5 sequence (P26358 728-900 E819A): as the sequence (P26358 728-900) above, with E92A counted along it
T7 sequence (P26358 728-900 D768A): as the sequence (P26358 728-900) above, with D41A counted along it
T6 sequence (P26358 728-900 E821A): as the sequence (P26358 728-900) above, with E94A counted along it
T3 sequence (P26358 728-900): as the sequence (P26358 728-900) above

Binder	binding result [2]	Kd [5] [µM]	stoichiometry N [5]	Kd [6] [µM]	stoichiometry N [6]	Kd [7] [µM]	stoichiometry N [7]	further results
B1	–	–	–	–	–	–	–	stoichiometry N [1]: 1
B2	binds	–	–	–	–	–	–	–
B3	–	9.4	0.73	91.7	0.88	11.5	0.82	Kd [3]: 131 µM; Kd [4]: 122 µM; stoichiometry N [4]: 1.45
B4	binds	–	–	–	–	–	–	–
B5	–	12.3	0.87	35.4	0.83	9.3	0.92	Kd [8]: 8.7 µM; stoichiometry N [8]: 0.75
B6	–	–	–	–	–	–	–	Kd [9]: ~70 µM
